Target: T1, Fc-fused CD215 fragment
T1 construct: also called CD215 fragment in L-unit (fused with hIgG4Fc); CD215 fragment fused with Fc
Test: sandwich ELISA of the intact complex in mouse serum: one antibody captures the S-unit, the other detects the Fc portion

T1 sequence (chain, as listed by the source limits assumed): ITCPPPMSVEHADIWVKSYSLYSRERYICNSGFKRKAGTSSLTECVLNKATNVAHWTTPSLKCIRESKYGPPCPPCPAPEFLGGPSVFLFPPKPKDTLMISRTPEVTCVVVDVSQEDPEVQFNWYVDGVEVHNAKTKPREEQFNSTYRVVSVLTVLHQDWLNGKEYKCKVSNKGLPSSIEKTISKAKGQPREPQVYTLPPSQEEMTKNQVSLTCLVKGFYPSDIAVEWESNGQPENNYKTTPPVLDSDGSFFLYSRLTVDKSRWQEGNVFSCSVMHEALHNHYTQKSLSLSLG

- binding result: binds
B1: S-unit molecule (PM619) (ligand)
chain: APTSSSTKKTQLQLEHLLLDLQMILNGIQSMHIDATLYTESDVHPSCKVTAMKCFLLELQVISLESGDASIHDTVENLIILANNSLSSNGNVTESGCKECEELEEKNIVEFLNRFITFAQSIISTLT
notes: also called IL-2/15 chimera; modified IL-2 molecule

From EP4741426A1 (Leto Laboratories Co., Ltd, dated 2026)
